According to PMC5551644 (Biochemistry, 2016):
Where two headings read alike, the source gives them in different places.

Experiments:
Assay in all cases: SPR
[1] = target: T1, TGF-β type II receptor extracellular domain (UniProt P37173 23-166)
[2] = target: T1, TGF-β type II receptor extracellular …; remark: listed apart in the source
[3] = target: T1, TGF-β type II receptor extracellular …; remark: listed apart in the source

T1 sequence (P37173 23-166): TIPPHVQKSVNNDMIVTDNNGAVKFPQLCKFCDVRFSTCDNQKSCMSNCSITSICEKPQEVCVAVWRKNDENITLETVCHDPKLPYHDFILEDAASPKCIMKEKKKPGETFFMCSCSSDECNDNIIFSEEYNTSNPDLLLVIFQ

B1: Transforming growth factor β2 (TGF-β2), recombinant human (ligand, UniProt P61812 303-414, looked up)
chain: ALDAAYCFRNVQDNCCLRPLYIDFKRDLGWKWIHEPKGYNANFCAGACPYLWSSDTQHSRVLSLYNTINPEASASPCCVSQDLEPLTILYYIGKTPKIEQLSNMIVKSCKCS
modifications: biotinylated for SPR (EZ-Link Amine-PEG3-biotin with EDC/Sulfo-NHS; for the experiments of Table S1 sulfo-NHS-LC-LC-Biotin)
Kd [1]: 4.6 ± 0.7 µM
Kd [2]: 9.4 ± 2.2 µM
Kd [3]: 2.9 ± 1.1 µM
